Assay results published in the supplement of paper PMC9112550, “Optimization of the antimicrobial peptide Bac7 by deep mutational scanning” (BMC Biology, 2022).

system: Escherichia coli TOP10; experiment: shrunken log2 fold change of peptide-encoding DNA abundance (4.5 h post-induction vs induction); higher = less antimicrobial activity (less host growth inhibition); settings: time post-induction: 4.5 h; library: site-saturation at positions 5, 18, 19, 20
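Also: peptides expressed intracellularly from a pBAD plasmid library in pooled LB shake-flask culture, induced with 0.3% L-arabinose, DNA abundance read by NGS, three biological replicates, DESeq2 with apeglm shrinkage.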

| Sequence | shrunken log2 fold change |
| --- | --- |
| RRIRHRPPRLPRPRPRPDCAPRP | 0.196 |
| RRIRDRPPRLPRPRPRPVVLPRP | 0.268 |
| RRIRLRPPRLPRPRPRPTQVPRP | 0.452 |
| RRIRSRPPRLPRPRPRPHWSPRP | -0.0455 |
| RRIRHRPPRLPRPRPRPLGQPRP | 0.0866 |
| RRIRCRPPRLPRPRPRPMGRPRP | 0.162 |
| RRIRQRPPRLPRPRPRPSMMPRP | -0.565 |
| RRIRFRPPRLPRPRPRPAEQPRP | 1.16 |
| RRIRERPPRLPRPRPRPPSMPRP | -0.242 |
| RRIRARPPRLPRPRPRPNDFPRP | -0.214 |
| RRIRARPPRLPRPRPRPRIAPRP | 0.631 |
| RRIRVRPPRLPRPRPRPFELPRP | 0.0193 |
| RRIRPRPPRLPRPRPRPGHVPRP | 0.564 |
| RRIRMRPPRLPRPRPRPKFQPRP | 0.549 |
| RRIRFRPPRLPRPRPRPECPPRP | 0.0177 |
| RRIRIRPPRLPRPRPRPEGFPRP | -0.321 |
| RRIRNRPPRLPRPRPRPTRWPRP | 0.292 |
| RRIRSRPPRLPRPRPRPHTEPRP | -0.599 |
| RRIRCRPPRLPRPRPRPRKSPRP | 0.126 |
| RRIRLRPPRLPRPRPRPNMNPRP | -0.68 |
| RRIRSRPPRLPRPRPRPFGIPRP | -0.172 |
| RRIRHRPPRLPRPRPRPMWMPRP | -0.000946 |
| RRIRIRPPRLPRPRPRPGMTPRP | -0.164 |
| RRIRFRPPRLPRPRPRPAGDPRP | 0.378 |
| RRIRYRPPRLPRPRPRPGENPRP | 0.00408 |

| Sequence | shrunken log2 fold change |
| --- | --- |
| RRIRMRPPRLPRPRPRPGVAPRP | 1.02 |
| RRIRHRPPRLPRPRPRPFMDPRP | -0.436 |
| RRIRGRPPRLPRPRPRPSRMPRP | 0.22 |
| RRIRRRPPRLPRPRPRPKPYPRP | -0.033 |
| RRIRLRPPRLPRPRPRPLMEPRP | -0.392 |
| RRIRFRPPRLPRPRPRPSDHPRP | -0.221 |
| RRIRQRPPRLPRPRPRPCGGPRP | 0.257 |
| RRIRKRPPRLPRPRPRPGDQPRP | -0.00987 |
| RRIRERPPRLPRPRPRPHFIPRP | -0.573 |
| RRIRHRPPRLPRPRPRPIHAPRP | -0.173 |
| RRIRVRPPRLPRPRPRPFAWPRP | 0.384 |
| RRIRWRPPRLPRPRPRPAMKPRP | -0.0119 |
| RRIRPRPPRLPRPRPRPVLIPRP | -0.237 |
| RRIRYRPPRLPRPRPRPPPRPRP | 1.5 |
| RRIRFRPPRLPRPRPRPAELPRP | 0.281 |
| RRIRTRPPRLPRPRPRPPWTPRP | 0.167 |
| RRIRDRPPRLPRPRPRPCLSPRP | 0.000319 |
| RRIRCRPPRLPRPRPRPRHCPRP | 0.423 |
| RRIRVRPPRLPRPRPRPRVSPRP | 0.205 |
| RRIRWRPPRLPRPRPRPTPLPRP | 0.557 |
| RRIRWRPPRLPRPRPRPVHYPRP | -0.0467 |
| RRIRHRPPRLPRPRPRPKRYPRP | -0.0093 |
| RRIRARPPRLPRPRPRPVRTPRP | 1.06 |
| RRIRIRPPRLPRPRPRPVTGPRP | -0.37 |
| RRIRCRPPRLPRPRPRPISCPRP | -0.0979 |

| Sequence | shrunken log2 fold change |
| --- | --- |
| RRIRERPPRLPRPRPRPNSPPRP | -0.00647 |
| RRIRMRPPRLPRPRPRPMGMPRP | -0.103 |
| RRIRKRPPRLPRPRPRPMSPPRP | -0.0332 |
| RRIRNRPPRLPRPRPRPRWTPRP | 0.0415 |
| RRIRIRPPRLPRPRPRPYRWPRP | 0.0522 |
| RRIRARPPRLPRPRPRPILSPRP | 0.376 |
| RRIRYRPPRLPRPRPRPMTKPRP | 0.0153 |
| RRIRWRPPRLPRPRPRPMIEPRP | 0.0215 |
| RRIRERPPRLPRPRPRPAQWPRP | 0.184 |
| RRIRQRPPRLPRPRPRPNSKPRP | -0.429 |
| RRIRIRPPRLPRPRPRPPFAPRP | 0.143 |
| RRIRLRPPRLPRPRPRPPAVPRP | 0.341 |
| RRIRRRPPRLPRPRPRPWGEPRP | 2.96 |
| RRIRNRPPRLPRPRPRPGSHPRP | -0.291 |
| RRIRTRPPRLPRPRPRPWNNPRP | -0.256 |
| RRIRFRPPRLPRPRPRPMREPRP | 1.08 |
| RRIRIRPPRLPRPRPRPYHRPRP | -0.00133 |
| RRIRGRPPRLPRPRPRPYWYPRP | -0.211 |
| RRIRERPPRLPRPRPRPWSQPRP | -0.0521 |
| RRIRIRPPRLPRPRPRPNLGPRP | -0.109 |
| RRIRHRPPRLPRPRPRPIGLPRP | 0.0101 |
| RRIRARPPRLPRPRPRPSLTPRP | 0.172 |
| RRIRQRPPRLPRPRPRPNQTPRP | -0.0346 |
| RRIRVRPPRLPRPRPRPVRGPRP | 0.767 |
| RRIRIRPPRLPRPRPRPHGWPRP | 0.0102 |

| Sequence | shrunken log2 fold change |
| --- | --- |
| RRIRARPPRLPRPRPRPLLQPRP | 0.171 |
| RRIRDRPPRLPRPRPRPKDKPRP | 0.0636 |
| RRIRFRPPRLPRPRPRPRDQPRP | 0.0987 |
| RRIRNRPPRLPRPRPRPNFSPRP | -0.0166 |
| RRIRPRPPRLPRPRPRPWIFPRP | -0.0541 |
| RRIRFRPPRLPRPRPRPSRWPRP | 0.29 |
| RRIRIRPPRLPRPRPRPHQLPRP | -0.52 |
| RRIRFRPPRLPRPRPRPQLQPRP | 0.0569 |
| RRIRCRPPRLPRPRPRPQHTPRP | -0.0159 |
| RRIRHRPPRLPRPRPRPWWTPRP | 0.00261 |
| RRIRLRPPRLPRPRPRPWTMPRP | -0.202 |
| RRIRRRPPRLPRPRPRPDDHPRP | -0.276 |
| RRIRPRPPRLPRPRPRPALPPRP | 1.63 |
| RRIRWRPPRLPRPRPRPIDIPRP | -0.535 |
| RRIRNRPPRLPRPRPRPDEWPRP | 0.0842 |
| RRIRQRPPRLPRPRPRPDWRPRP | 0.0703 |
| RRIRNRPPRLPRPRPRPMYAPRP | -0.192 |
| RRIRVRPPRLPRPRPRPFYWPRP | -0.103 |
| RRIRGRPPRLPRPRPRPAKPPRP | 0.82 |
| RRIRHRPPRLPRPRPRPGHWPRP | -0.0325 |
| RRIRPRPPRLPRPRPRPISHPRP | -0.118 |
| RRIRLRPPRLPRPRPRPGCVPRP | 0.182 |
| RRIRDRPPRLPRPRPRPQHYPRP | -0.856 |
| RRIRMRPPRLPRPRPRPAMWPRP | 0.511 |
| RRIRVRPPRLPRPRPRPLSFPRP | -0.426 |

| Sequence | shrunken log2 fold change |
| --- | --- |
| RRIRFRPPRLPRPRPRPNMPPRP | -0.443 |
| RRIRGRPPRLPRPRPRPQNVPRP | 0.266 |
| RRIRERPPRLPRPRPRPWFSPRP | -0.336 |
| RRIRARPPRLPRPRPRPPLLPRP | 0.543 |
| RRIRERPPRLPRPRPRPGWFPRP | -0.249 |
| RRIRGRPPRLPRPRPRPEYTPRP | 0.335 |
| RRIRKRPPRLPRPRPRPSSVPRP | -0.378 |
| RRIRRRPPRLPRPRPRPGKCPRP | -0.283 |
| RRIRFRPPRLPRPRPRPRNNPRP | -0.381 |
| RRIRRRPPRLPRPRPRPGYQPRP | 0.0538 |
| RRIRLRPPRLPRPRPRPWTEPRP | -0.01 |
| RRIRSRPPRLPRPRPRPNEAPRP | 0.162 |
| RRIRTRPPRLPRPRPRPEIVPRP | 0.00632 |
| RRIRKRPPRLPRPRPRPEGCPRP | 0.959 |
| RRIRIRPPRLPRPRPRPGMRPRP | 0.43 |
| RRIRFRPPRLPRPRPRPPRPPRP | 0.905 |
| RRIRTRPPRLPRPRPRPDDKPRP | -0.294 |
| RRIRTRPPRLPRPRPRPHECPRP | -0.287 |
| RRIRKRPPRLPRPRPRPWQMPRP | 0.0764 |
| RRIRLRPPRLPRPRPRPGSMPRP | -0.192 |
| RRIRPRPPRLPRPRPRPEMLPRP | 0.16 |
| RRIRERPPRLPRPRPRPDCHPRP | -0.011 |
| RRIRARPPRLPRPRPRPQYIPRP | -0.566 |
| RRIRWRPPRLPRPRPRPDEAPRP | 0.0325 |
| RRIRIRPPRLPRPRPRPPQSPRP | 0.0652 |

| Sequence | shrunken log2 fold change |
| --- | --- |
| RRIRQRPPRLPRPRPRPLGGPRP | -0.12 |
| RRIRERPPRLPRPRPRPRLVPRP | -0.0143 |
| RRIRQRPPRLPRPRPRPYRCPRP | -0.122 |
| RRIRDRPPRLPRPRPRPVFLPRP | -0.208 |
| RRIRNRPPRLPRPRPRPSCLPRP | -0.4 |
| RRIRERPPRLPRPRPRPPLRPRP | 0.135 |
| RRIRFRPPRLPRPRPRPYSCPRP | -0.388 |
| RRIRIRPPRLPRPRPRPINCPRP | -0.0883 |
| RRIRHRPPRLPRPRPRPITAPRP | -0.303 |
| RRIRSRPPRLPRPRPRPASAPRP | 0.243 |
| RRIRKRPPRLPRPRPRPVCNPRP | -0.148 |
| RRIRVRPPRLPRPRPRPCCRPRP | 0.0482 |
| RRIRERPPRLPRPRPRPNPCPRP | -0.226 |
| RRIRDRPPRLPRPRPRPTKHPRP | -0.0699 |
| RRIRRRPPRLPRPRPRPWHFPRP | 0.121 |
| RRIRTRPPRLPRPRPRPDEMPRP | -0.023 |
| RRIRMRPPRLPRPRPRPIKNPRP | 0.387 |
| RRIRRRPPRLPRPRPRPTVWPRP | 0.359 |
| RRIRYRPPRLPRPRPRPFNKPRP | -0.00496 |
| RRIRCRPPRLPRPRPRPYWTPRP | -0.966 |
| RRIRFRPPRLPRPRPRPTTEPRP | 0.108 |
| RRIRCRPPRLPRPRPRPHPNPRP | -0.186 |
| RRIRGRPPRLPRPRPRPVYNPRP | 0.0349 |
| RRIRGRPPRLPRPRPRPLSIPRP | 0.363 |
| RRIRARPPRLPRPRPRPSHYPRP | -0.0225 |
